The results in this text go back to PMC6770517, “Insight into the Antifungal Mechanism of Action of Human RNase N-terminus Derived Peptides” (International Journal of Molecular Sciences, 2019).

Assay [1] deals with C. albicans cells. Put plainly: Cell binding assay (supernatant SDS-PAGE). More on the design: species or system Candida albicans (ATCC 90028). The conditions noted are these: 1 μM, PBS, 30 °C, 15, 30 and 60 min; unbound fraction by SDS-PAGE. How it is done:
(§1) C. albicans was cultured overnight in Sabouraud Dextrose broth at 30 °C, sub-cultured the next day and grown to an optical density of 0.4 at 592 nm (mid log-phase). Cells were washed twice in PBS and adjusted to 2 × 10^6 cells/mL. Cells and yeast β-D-Glucan (0.4 mg/mL) (Sigma) were respectively incubated in 100 μL of PBS at 30 °C with proteins and peptides at 1 μM final concentration during different periods of time up to 1 h. Following, the samples were centrifuged at 12,000× g. The supernatant samples were concentrated, and the presence of the proteins and peptides was checked by 15–18% SDS-PAGE and Coomassie Blue staining. Reference protein controls were treated following the same protocol in the absence of cells.

Assay [2] relates to C. albicans cells. As to the kind of experiment: Minimal agglutination activity (MAC). The class given is cell-based, Candida albicans (ATCC 90028). Particulars: protein tested up to 20 μM. Here is the method: C. albicans cells were grown at 30 °C to an OD592 of 1.0, diluted 10 times, centrifuged at 5000× g for 2 min, and resuspended in 1× PBS. An aliquot of 100 μL of the cellular suspension was treated with increasing peptide concentrations (from 0.01 to 20 μM) and incubated at 30 °C for 1 h. The aggregation behavior was observed by visual inspection, and the agglutinating activity is expressed as the minimum agglutinating concentration of the sample tested, as previously described. Images were taken using a 50× stereoscope microscope.

Assay [3] is described as follows: β-D-Glucan binding assay (supernatant SDS-PAGE). On the set-up: species or system yeast. Particulars: β-D-Glucan 0.4 mg/mL, 1 μM, PBS, 30 °C, up to 1 h; unbound fraction by SDS-PAGE. How it is done:
as §1

B1: hRNase3: human ribonuclease 3 of the RNaseA superfamily, parental protein of RN3 (protein, UniProt P12724 28-160, looked up)
Eosinophil cationic protein: RPPQFTRAQWFAIQHISLNPPRCTIAMRAINNYRWRCKNQNTFLRTTFANVVNVCGNQSIRCPHNRTLNNCHRSRFRVPLLHCDLINPGAQNISNCTYADRPGRRFYVVACDNRDPRDSPRYPVVPVHLDTTI
In the case of B1, the “binding to C. albicans cell wall” value in the assay with C. albicans cells [1] is recorded as “able to bind to the C. albicans cell wall”. Further, the “agglutination of C. albicans by the parental hRNase” value in the assay with C. albicans cells [2] is “able to agglutinate C. albicans”. The “binding to main cell wall component (β-D-Glucan)” value in assay [3] is “positive binding”.
